The RNAGym collection of RNA variant scans (doi:10.1073/pnas.2313332121)
Variants at the floor of the assay were thinned out.

B1: TPR 5TU (parent)
chain: GGAUCUUCUCGAUCUAACAAAAAAGACAAAUCUGCCACAAAGCUUGAGAGCAUCUUCGGAUGCAGAGGCGGCAGCCUUCGGUGGCGCGAUAGCGCCAACGUUCUCAACUAUGACACGCAAAACGCGUGCUCCGUUGAAUGGAGUUUAUCAUG

Variants of: B1
Test: polymerase ribozyme fitness, log enrichment relative to wild type (log ratio); higher = more active; in vitro selection for triplet polymerase activity
Outline: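 For each subunit of a heterodimeric triplet polymerase ribozyme, a mutant library was built by PCR and transcribed, then taken through a single in vitro selection round in triplicate. Selection involved annealing to a biotinylated primer, the partner subunit and triplets, incubation frozen at −7 °C, gel excision of extended constructs, capture on streptavidin beads and RT-PCR. Genotypes were retained after Illumina sequencing of inputs and outputs only with ≥10 input reads and ≥1 read in each output. Fitness is defined as the logarithm of a genotype's enrichment relative to wild-type enrichment, using inverse-variance-weighted averages across replicates, with the logarithm taken to base 2.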

Variant	polymerase ribozyme fitness (log ratio)
A21U A22U U53G	-0.816
A21U G34A G141A C149G	≤ -4.2
A22C A47C C51G A64G C72A C95U A107G A113U U135A	≤ -4.2
A21G G84U C118U	-1.39
A21U C99U C116U C125U	-1.64
A21G C38U	0.63
A21C G68C A142G	-4.13
A21G A138C	-4
A21U C36G U44C C54G G74U A89G A120C U134G	≤ -4.2
A21G C76A G86U C93G U101C A122G	-0.0234
A21C G25C C76G A137C U145G	≤ -4.2
A21G A41C G46A G65U	≤ -4.2
A22C C38U G58U A60C C85A C87U G133A G140U	≤ -4.2
A22C C85G U109A	-3.43
A21U C79G	-3.91
A21U G48A U82G C95G	≤ -4.2
A21U U77G U78C G84A	≤ -4.2
A21U C57U C93U C96A C116U	-1.6
A21C G68C C69A C93G U144G	≤ -4.2
A21U A26U A28U G67A G88A A122U	≤ -4.2
A21U C36A G80A G88A G100U G124C G133A G143C U148A	≤ -4.2
A21U C57A A107C A122G C123U U135C U145A	≤ -4.2
A21U G42C U44A U53A U55A C87U	≤ -4.2
A21G C57A	1.14

Variant	polymerase ribozyme fitness (log ratio)
A22C A66C C103G G126C	≤ -4.2
A21G G42U C54A C72U C76U C79U G84U	≤ -4.2
A21U A29U U61A	≤ -4.2
A21U A23G	-2.94
A21U C93G	-2.5
A22C A23G A49C A66G A113U	≤ -4.2
A21U C32G C85A	≤ -4.2
A21C U53A G58A C95U U101G C116A	-0.162
A21U G88A	-3.62
A21G A24G A47G G94C U102G C118U A121U	≤ -4.2
A21U A40C	1.56
A21U U56A G81U C85G A107U G141U U144G	≤ -4.2
A21G U31A C95A	0.669
A21G G80A C99G A119U	-0.387
A21U A29U U33G C35U G81U G84A	-4.1
A22C A41U U53C C75U	-2.58
A22C C38U C69U C85U	-1.31
A21C G88A U104G A107U	≤ -4.2
A21G U56C C93U	-0.835
A21U G84C A121U A122C	-1.35
A21U C35A G50C A91G U134G	≤ -4.2
A22C C69G G81C	-1.85
A22C A40U C57U G58A G65A C75A G133A A138U A142C	≤ -4.2
A21U G34A C69A C132G	≤ -4.2

Variant	polymerase ribozyme fitness (log ratio)
A21G A49U G50A	-0.423
A21C G50C A60C A64U A66G G83A	≤ -4.2
A21U G128A	-3.26
A21G U31G C38U A66G C93A G124U U144A	≤ -4.2
A22C C27G C76U C96G G140U	≤ -4.2
A21U A40G A60G C96G U146G	-3.99
A21U A22U G42A G70C C93U G140C G152U	≤ -4.2
A21C U53A U56A C69U A98U G117C C118G U134A	≤ -4.2
A22C C35A U55A C57U G86U A119U	≤ -4.2
A21U A113C U127G C132U	≤ -4.2
A21U G50A C63G A89G C95U C116U	-1.96
A21G A37U G59A A60C	-3.22
A21U A24C U56A C96U A138U	≤ -4.2
A21C G25U C96A A97G	-3.82
A21G C85U C96U C105U A106C A138G	≤ -4.2
A21U C36A G86A A98C	-4.1
A21G C93U	-0.895
A21C U33A G50A G62A U90C C95A	≤ -4.2
A21U C57A C76U C116A	0.702
A21G G46U	0.452
A21C G86A	-0.32
A21G G25U G50U C54U A73G C93A C108G C129G U135G	≤ -4.2
A21U G46U U55A C85G A106G C116A	-1.91
A21G A47C C51U C87U U90G	≤ -4.2

Variant	polymerase ribozyme fitness (log ratio)
A22C A28U A121U	≤ -4.2
A21G A40C G86U A119G A150C	≤ -4.2
A21C G62C	-0.587
A22C A47U C54U G86U C103A	≤ -4.2
A21U G48A U55A C75U G83C A89G A98U C105U G117A U144C	≤ -4.2
A21U C85U C131U U145G U151A	≤ -4.2
A22C A41C A49C U53A G67U G117A C131A	≤ -4.2
A21G U33G A52C U61G A64G U78G C95A A106G A142G	≤ -4.2
A21U A41G A60U C85U C103G C123A	-3.69
A22C A28U C105U C123U	≤ -4.2
A21G C54U G140A U145G	≤ -4.2
A21G C96U	0.682
A21G C96G	0.474
A21G A22G A37C G62C G94C C103A A106C U130A	≤ -4.2
A22C C87U	-0.775
A21U C95A U146G	-0.389
A21G G68A	-3.89
A21C C95U C129A	-2.89
A21U C38A G81A	0.0427
A21G C75U A98G C99G C114U	≤ -4.2
A21U G59U C105U C129A	-2.46
A22C A137G	-2.58
A21U C32G U55A G83U	≤ -4.2
A21C C116U	0.668

Variant	polymerase ribozyme fitness (log ratio)
A21U C57U C93G	-3.29
A21U A24U G94U A97G A150C	≤ -4.2
A21U C79U C93G	≤ -4.2
A21G C36G A47C A120C G133A	≤ -4.2
A21U C96A A110G C116U U145G	≤ -4.2
A21U U55G G70A C93A	≤ -4.2
A21G G81A C95U A107G A119C G141U	≤ -4.2
A21G U82A C96A U101G A121U	0.493
A21G A41G C93A C132A	-3.75
A22C C27U A52C	-2.64
A21C G84A C95A U104C	-0.91
A21U U56A C96U	-0.871
A21U C51U C93G C105U A120G	-3.58
A21U G25C A29U U33A A37U A66C G70C G88U G124U	≤ -4.2
A22C C43U C51U C76A C93A C125G	≤ -4.2
A21G U53A A60U C96U C99G A110G	≤ -4.2
A21G A60G C63A C93G	-3.23
A21G G92C	0.365
A21U C54U U146A	-0.081
A21U U33G C72A C95U A122U	≤ -4.2
A21G C36U A52U C116U A120U U144C	-3.59
A21U G80C C85A U127A	≤ -4.2
A21G C27A G46A A73G C87A	≤ -4.2
A21U A24C C27G A28U G88U U102C A107C C114U	≤ -4.2

Variant	polymerase ribozyme fitness (log ratio)
A21U U135A	-1.24
A21G A22U A24G A39U C87A C96A U148C	≤ -4.2
A21G G81U G86U C123A	-1.08
A21G A28G U61C	≤ -4.2
A21G A52U C85U G94U A98U C116U	-1.64
A21U C27U C35A C57A G59C G74C G86U A89G U101G	≤ -4.2
A21C G25A	-2.85
A21U C118U A119G	-3.17
A21C G141C	1.03
A21G A52G U102A	-1.09
A21G C35A A49G C96G	≤ -4.2
A22C A28U G58C A91C	≤ -4.2
A21G A30G A89C	≤ -4.2
A22C A29U U33C A47C U53G C95U C105A C118U	≤ -4.2
A22C A37C	-0.165
A21U C69U C87U C96A	-1.14
A21G A41U A64U C85G A98U	≤ -4.2
A21U G141C	0.187
A21U G141U	1.9
A21U A113U A137G U144A	-3.99
A21U G80U G94A A147U	-0.607
A21G U55G G143C	-1.59
A21G C27A	-3.89
A21U A29U C85U G141C	≤ -4.2

Variant	polymerase ribozyme fitness (log ratio)
A21C C93U	-1.24
A22C C27U G50C G80U U144G	≤ -4.2
A21U U44A C51U C57U G65A	≤ -4.2
A21G A41U C85A C116U	-1.58
A21U C36G C51U U55C G92U U148A	≤ -4.2
A21G C27G U33C G58C C96U A97U A106G G141U	≤ -4.2
A22C C69A G80C C85U A89U A142G	≤ -4.2
A21U C38A U102A A120U A147C	-2.82
A21G U151C	-3.8
A21C U55G C93U G126U	-0.141
A21G U77A A91G	≤ -4.2
A21U A26C G141A	-3.34
A21U G59C G126U	0.721
A21U C38A	0.268
A21C G68U	≤ -4.2
A21C C96A G143A U146G	-3.61
A21U C87G	≤ -4.2
A21U C87U	-0.254
A21G G50C G71C C79A C95G A121U U127G G136U U139C A142C U145G	≤ -4.2
A22C C114A	-3.5
A21G A52C G83U G84A U90C C95G G100A C103G A107U U139G	≤ -4.2
A21G U31A C51G G71U A89C A106G A110U A138G	≤ -4.2
A21G U55A C96U G117A	0.86
